According to the nanobody polyreactivity screen of Harvey et al. (2022):

Experiment: yeast display, Sf9 membrane polyspecificity reagent, FACS + sequencing; frameworks hold sequencing errors
Method in brief: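 Galactose induction of a Saccharomyces cerevisiae BJ5465 synthetic nanobody display library ran 36–48 hours. The cells were then stained for 1 hour at 4 °C with 10% biotinylated, detergent-solubilized Sf9 membrane reagent, pulled down on streptavidin microbeads and FACS-sorted into low and high (top ~1%) gates on expression and reagent-binding fluorescence. Labels for polyreactivity follow the gate of origin.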

Row | Sequence | polyreactivity (PSR sort gate)
1 | QVQLVESGGGLVQAGGSLRLSCAASGSIFGDNAMGWYRQAPGKERELVARISSGGNTYYADSVKGRFTISRDNAKNTVYLQMNSLKPEDTAVYYCAAAIKVSYKKFPYYYWGQGTQVTVSS | high polyreactivity
2 | QVQLVESGGGLVQAGGSLRLSCAASGSTSQRNAMGWYRQAPGKERELVAGITTSGGRTYYADSVKGRFTISRDNAKNTVYLQMNSLKPEDTAVYYCAARTQIWKYRGYYSWGQGTQVTVSS | high polyreactivity
3 | QVQLVESGGGLVQAGGSLRLSCAASGRIFDLNTMGWYRQAPGKERELVAAISSGGSTYYADSVKGRFTISRDNAKNTVYLQMNSLKPEDTAVYYCAADKIRGYRIRMYWGQGTQVTVSS | low polyreactivity
4 | QVQLVESGGGLVQAGGSLRLSCAPSGITFRFYAMGWYRQAPGKEREFVAAISRSDSSYYADSVKGRFTISRDNAKNTVYLHMNSLKPEDSAVYYCAADSYRSAQGLDYWGQGSQVTVSS | high polyreactivity
5 | QVQLVESGGGLVQAGGSLRLSCAASGGTFQDYGMGWYRQAPGTERELVAAITWSGGSTYYADSVKGRFTISRDNAKNTVYLQMNSLKPEDTAVYYCAAVYADVYLYLTAYDYWGQGTQVTVSS | low polyreactivity
6 | QVQLVESGGGLVQAGGRLRLSCAASGSTFGSNVMGWYRQAPGKERELVASISSGGRTKYADSVKGRFTISRDNAKNTVYLQMNSLKPEDTAVYYCNTRLRKKNSRDYDYWGQGTQVTVSS | low polyreactivity
7 | QVQLVESGGGLVQAGGSLRLSCAASGLIFVYNAMGWYRQAPGKEREFVAGITSGGSTNYADSVKGRFTISRDNAKNPVYLQMNSLKPEDTAVYDCAAGYYDLYLWWGYDYWGQGTQLTVSS | high polyreactivity
8 | QVQLVESGGGLVQAGGSLRLSCAASGFTFVFYAMGWYRQAPGKERELVAAINSGGSTYYADSVKGRFTISRDIAKNTDYLQMNSLKPEDTAVYYCAKGSYGPSAGYGRRYYYWGQGTQVTVSS | high polyreactivity
9 | QVQLVESGGGLVQAGGSLRLSCASSGLIFYHYAMGWYRQAPGKERELVAAISWRGGTTYYADSVKGRFTISSDNAKNTVYLQMNSLKPEDTAVYYCNALLRSPGLGYDYWGQGTQVTVSS | high polyreactivity
10 | QVQLVESGGGLVQAGGSLRLSCAPSGHIFLQNAMGWYRQAPGKERELVAGITYSDTSTYADSVKGRFTISRDNAKNTVYLQMNSLKPEDTAVYYCEYYYWGQGTQVTVSS | low polyreactivity
11 | QVQLVESGGGLVQAGGSLRLSCAASGIIFGTYAMGWYRQAPGKERDLVAAISSSGGSTYYADSVKGRFTISRDNAKNTVYLQMNSLKPEDTAVYYCAADGPSNHDYHWGQGTQVTVSS | high polyreactivity
12 | QVQLVESGGGLDQAGGSLRLSCAASGRTFPYNTMGWYRQAPGKERELVASITYTDGSTSYADSVKGRFTISRDNAKNTVYLQMNSLKPEDTSVYYCAADYYAHQDYRFDYWGQGTQVTVSS | low polyreactivity
13 | QVQLVESGGGLVQAGGSLRLSCAASGRSLRGYAMGWYREAPGNEWVFVAAISSRGGSTYYADSVKGRLTLSRDNAKNTVYVQMNSLKPEDSAVYYCAAQWGRWYYGFNYRGQGTQVTVSS | high polyreactivity
14 | QVQLVESGGGLVQAGGSLRLSCAASGNIFKVYVMGGSRQAPGKERELVAAISGSGGSTYYADSVKGRFTISRDNAKTTVYLQMNSLKPEDTSVYYCNKVFKVTAARSFGYWGQGTQVTVSS | low polyreactivity
15 | QVQIVESGGCLVQAGGSLRLSWAASGGIFSTNAMGWYRQAPGKERELVAAISRRGGSTYYADSVKGRFTISRDNAKNTGYLQMNSLKPEDTAVYYCNKYLRLFSYGRGYDYWGQGTQVTVSS | high polyreactivity
16 | QVQLVDSGGGLVQAGGSLRLSCAASGRTFNWYAMGWYRQETRKERELVAAISSTGGSTYYADSVKGRFTISRDNAKNTVYLQMNSLKPEDTAVYYCAAALPGYGDYYYWGQGTQVTVSS | high polyreactivity

Row | Sequence | polyreactivity (PSR sort gate)
17 | QVQLVESGGGLVQAGGSLRLSCAASGITFRIYAMGWYRQAPGKEREFVAAINQRGGSTYYADSVKGRFTISRDNAKNTVYLQMNSLKPEDTAVYYCNADYSYVGEYDYWGQGTQVTVSS | low polyreactivity
18 | QVQLVESGGGLVQAGGSLRLSCAASGSIFDVNAMGRYRQAPGKERELVAAISQRGTRTYYADSVKGRFTISRDNAKNTVYLQLNSLKPEDTAVYYCNRGGWRQYDSWGQGTQVTVSS | high polyreactivity
19 | QVQLRESGGGLVQAGGSLSLSCAASGTIFYSRYMGWYRQAPGKEREFVASNSSGGNTNYADSVKGRFTISRDNAKNTVYLQMNSLKPEVSAVYYCEVNTGLITTFPYWGQGTQVTVSS | high polyreactivity
20 | QVQLVESGGGLVQAGGSLRLSCAASGSTFIFNTMGWYRQAPGKERELVATITGSGGSTYYADSVKGRFTISRDNAKNTVYLQMNSLKPEDTAVYYCAAVGDQNEYDYWGQGTQVTVSS | low polyreactivity
21 | QVQLVESGGGLVQAGGSLRLSCAASGRTIGGYVMGWYRQAPGTERELVAVITISGGSTYYADSVKGRFTISRDNAKNTVYLQMNSLKPEDTAVYYCAARTYYGYDYWGQGTQVTVSS | high polyreactivity
22 | QGQLVESGGGLVQAGGSLRLSCAASGSIIRSYAMGWYRQAPGKERELVASISRRGGSTYYADSVKGRFTISRDNAKNTVYLQMNSLKPEDTAVYYCAAVRYNSRVSTTPSEMYYWGQGTQVTVSS | low polyreactivity
23 | QVQIVESGGGLVQAGGSLRLSCAASGRTLDSNAIGWYRKATRKERVLVAAISSAGSTNYADSVKGRFTISRDNAKNTVYLQMNSLKPEDTAVYYCAADLIGSHDYSGQGTQVTVSS | low polyreactivity
24 | QVQHVESGGGLLQAGGSLRLSCPASGRTFTVYALGWYRQAPGKDRELVAAFSRSGGRTYYADSVKGRFTISRDNAKNTVYLQRNSLKPEDTAVYYCAADDPYRTNDFDYWGQGTQVTVSS | high polyreactivity
25 | QVQLVESGGGLVQAGGSLRISCAASGSTFQYYAMGWYRPAPGKETELVAAISDRDGGTFYADSVKGRFTISRDNAKNTVYLQMNSLKPEDTAVYYCANDAVGFRLDDNGYWGQGTQVTVSS | low polyreactivity
26 | QVQLVESGGGLVQAGGSLRLSCAASGSIFLRNAMGWYRQAPGKERELVAAITNSSGSTYYADSVKGRFTISRDNAKNTVYLQMNSLKPEDTAVYYCAATSRSSRRYYYWGQGTQVTVSS | high polyreactivity
27 | QVQLEESGGGLVQAGGRLRLSCAASGSIFTGYTMGWYRQAPGKERELVASISRRGGRTYYADSVKGRFTISRDNAKNTVYLQMNSLKPEDTAVYYCAVDRVPWRYQDSYNYWGQGTQVTVSS | high polyreactivity
28 | QVQLVESGGGLVQAGGSLRLSCAASGRTFDVYAMGWYRQAPGKERELVAAISSSGGSTYYADSVKGRFTISRDNAKNTVYLQMNSLKPEDTAVYYCAVYYYSVYQYQAMDYWGQGTQVTVSS | low polyreactivity
29 | QVQLVESGGGLVQAGGSLRLICAASGSTFAFYAMGWYRQAPGKERELVAAISRSGGRTYYADSVKGRFTISRDNAKNTVYLQMNSLKPEDTAVYYCAAPSRITTGPHREYDYWGQGTQVTVSS | high polyreactivity
30 | QVQLVESGGGLVQAGGSLRLICAASGSTFWYYSMGWYRQAPGKERELVAAITRAGSTNYADSVKGRFTISRDNAKNTVYLQMNSLKPEDTAVYYCAADQYHYWYYLGGYDYWGQGTQVTVSS | high polyreactivity
31 | QVQLVESGVGLVQAGGSLRLSCAASGFTFRRYAMGWYRQAPGKERELVAAITSSGGNTYYADSVKGRFTISRDNAKNTVYLQMNSLKPEDTAVYYCAKRAFYSSSYDYWGQGTQVSVSS | high polyreactivity
32 | QVQLVESGGGLVQAGGSLRLSCAASGFTFNNYAMGWYRQAPGKERELVAAISSVGRTYYADSVKGRFTISRDNAKNTVYLQLNSLKPEDTAVYYCAVVYPARGSGNDSWGQGTQVTLSS | high polyreactivity
